The values below come from publication PMC9198273.

Test [1] concerns the target CXCR3-B C-terminally fused with SmBiT (human) (UniProt P49682).
Another test concerns the target untagged CXCR3-A (human) (UniProt P49682).
Test [2] has as its target CXCR3-A C-terminally fused with SmBiT (human) (UniProt P49682).
For test [3], the target named is CXCR3-B C-terminally fused with SmBiT (human) (UniProt P49682). This is another data set of the same source.
In test [4] the target is CXCR3-B -40, C-terminally fused with SmBiT (human) (UniProt P49682).
Test [5] addresses CXCR3-A C-terminally fused with SmBiT (human) (UniProt P49682). This is another data set of the same source.
Test [6] deals with CXCR3-B -30, C-terminally fused with SmBiT (human) (UniProt P49682).

Regarding “CXCL10 (from UniProt P02778 22-98) (ligand)”, in test [1], the Table 1: β-arrestin-2 recruitment to CXCR3-B, EC50 of the chemokine (NanoBiT-based assay) was 59.2 nM. In the test with untagged CXCR3-A (human), this molecule came in with a Table 1: Gi2 dissociation in CXCR3-A-expressing cells, EC50 of the chemokine (NanoBRET G protein activity sensor) of 0.9 nM; a Table 1: Go1 dissociation in CXCR3-A-expressing cells, EC50 of the chemokine (NanoBRET G protein activity sensor) of 1.9 nM; a Table 1: Gq dissociation in CXCR3-A-expressing cells, EC50 of the chemokine (NanoBRET G protein activity sensor) of 2.3 nM; a Table 1: cAMP, EC50 of the chemokine for the reduction of intracellular cAMP in CXCR3-A-expressing cells (GloSensor) of 14.1 nM. Besides, in test [2], the Table 1: miniGi recruitment to CXCR3-A, EC50 of the chemokine (NanoBiT-based assay) came to 18.2 nM; the Table 1: miniGq recruitment to CXCR3-A, EC50 of the chemokine (NanoBiT-based assay) is 22.2 nM; the Table 1: β-arrestin-1 recruitment to CXCR3-A, EC50 of the chemokine (NanoBiT-based assay) was found to be 17.8 nM; the Table 1: β-arrestin-2 recruitment to CXCR3-A, EC50 of the chemokine (NanoBiT-based assay) is 2.9 nM. Also, the Table 2: β-arrestin-1 recruitment to CXCR3-A, EC50 of the chemokine (NanoBiT-based assay, HEK293T) in test [2] was 10.7 nM.

B1: CXCL11 (ligand)
chain: FPMFKRGRCLCIGPGVKAVKVADIEKASIMYPSNNCDKIEVIITLKENKGQRCLNPKSKQARLIIKKVERKNF
Take B1: in test [1], the Table 1: β-arrestin-1 recruitment to CXCR3-B, EC50 of the chemokine (NanoBiT-based assay) amounted to 49.4 nM; the Table 1: β-arrestin-2 recruitment to CXCR3-B, EC50 of the chemokine (NanoBiT-based assay) was found to be 12.4 nM; the Table 2: β-arrestin-1 recruitment to CXCR3-B, EC50 of the chemokine (NanoBiT-based assay, HEK293T) was determined as 51.6 nM. In the test with untagged CXCR3-A (human), this molecule had a Table 1: Gi2 dissociation in CXCR3-A-expressing cells, EC50 of the chemokine (NanoBRET G protein activity sensor) of 1.2 nM; a Table 1: Go1 dissociation in CXCR3-A-expressing cells, EC50 of the chemokine (NanoBRET G protein activity sensor) of 1.8 nM; a Table 1: Gq dissociation in CXCR3-A-expressing cells, EC50 of the chemokine (NanoBRET G protein activity sensor) of 0.4 nM; a Table 1: cAMP, EC50 of the chemokine for the reduction of intracellular cAMP in CXCR3-A-expressing cells (GloSensor) of 6.3 nM. In test [2], this molecule returned a Table 1: miniGi recruitment to CXCR3-A, EC50 of the chemokine (NanoBiT-based assay) of 12.4 nM; a Table 1: miniGq recruitment to CXCR3-A, EC50 of the chemokine (NanoBiT-based assay) of 25.9 nM; a Table 1: β-arrestin-1 recruitment to CXCR3-A, EC50 of the chemokine (NanoBiT-based assay) of 15.8 nM; a Table 1: β-arrestin-2 recruitment to CXCR3-A, EC50 of the chemokine (NanoBiT-based assay) of 2.9 nM. The molecule further gave a Table 2: β-arrestin-1 recruitment to CXCR3-A, EC50 of the chemokine (NanoBiT-based assay, HEK293T) in test [2] of 9.6 nM. In test [3], this molecule returned a Table 3: β-arrestin-1 recruitment to CXCR3-B, EC50 of CXCL11 (NanoBiT-based assay) of 23.9 nM. Moreover, the Table 3: miniGi recruitment to CXCR3-B -40, EC50 of CXCL11 (NanoBiT-based assay, HEK293T) in test [4] is 32.7 nM. In test [5], this molecule displayed a Table 3: miniGi recruitment to CXCR3-A, EC50 of CXCL11 (NanoBiT-based assay, HEK293T) of 18.2 nM and a Table 3: β-arrestin-1 recruitment to CXCR3-A, EC50 of CXCL11 (NanoBiT-based assay) of 6.7 nM. The Table 3: miniGi recruitment to CXCR3-B -30, EC50 of CXCL11 (NanoBiT-based assay, HEK293T) in test [6] was determined as 27.2 nM.

B2: CXCL11P2G (ligand)
chain: FGMFKRGRCLCIGPGVKAVKVADIEKASIMYPSNNCDKIEVIITLKENKGQRCLNPKSKQARLIIKKVERKNF
The molecule B2 gave a Table 2: β-arrestin-1 recruitment to CXCR3-B, EC50 of the chemokine (NanoBiT-based assay, HEK293T) in test [1] of 153 nM. The Table 2: β-arrestin-1 recruitment to CXCR3-A, EC50 of the chemokine (NanoBiT-based assay, HEK293T) in test [2] was 14.8 nM.

B3: CXCL9 (ligand)
chain: TPVVRKGRCSCISTNQGTIHLQSLKDLKQFAPSPSCEKIEIIATLKNGVQTCLNPDSADVKELIKKWEKQVSQKKKQKNGKKHQKKKVLKVRKSQRSRQKKTT
As for B3, the Table 1: β-arrestin-2 recruitment to CXCR3-B, EC50 of the chemokine (NanoBiT-based assay) in test [1] was determined as 100000 nM. In the test with untagged CXCR3-A (human), this molecule came in with a Table 1: Gi2 dissociation in CXCR3-A-expressing cells, EC50 of the chemokine (NanoBRET G protein activity sensor) of 19.9 nM; a Table 1: Go1 dissociation in CXCR3-A-expressing cells, EC50 of the chemokine (NanoBRET G protein activity sensor) of 77.8 nM; a Table 1: Gq dissociation in CXCR3-A-expressing cells, EC50 of the chemokine (NanoBRET G protein activity sensor) of 56 nM; a Table 1: cAMP, EC50 of the chemokine for the reduction of intracellular cAMP in CXCR3-A-expressing cells (GloSensor) of 21.9 nM. In test [2], this molecule yielded a Table 1: β-arrestin-2 recruitment to CXCR3-A, EC50 of the chemokine (NanoBiT-based assay) of 16000 nM.
